Experimental data taken from US20220362330A1, “Compositions and Methods for Increasing Epithelial Barrier Function” (The Board of Trustees of the Leland Stanford Junior …, priority 2019, published 2022).
“Also recorded” adds a separate entry of the source. Square brackets hold non-standard residues; d marks the D form. Ends that are not written are not given here. Ahx = NCCCCCC(=O)O

Assays:
[1] = tested on: desmoglein-1a (DSG1a); test: qRT-PCR of Dsg1a gene expression in vaginal tissue; format: in vivo, mice
Experimental: (§1) To define progestin-mediated changes in mucosal permeability, vaginal tissue from mice in estrus, diestrus, or after DMPA or LNG treatment was used to measure expression of the desmosomal cadherins desmoglein-1a (DSG1a) and desmocollin-1 (DSC1).
(§2) Human ectocervical and murine vaginal tissues were immediately immersed in 1 mL of RNAlater® (Qiagen), stored for 24 h at 4° C., and stored long-term at −80° C. RNA isolated using the RNeasy Lipid Tissue Kit (Qiagen) using manufacturer's instructions was re-suspended in nuclease-free water and quantified using a NanoDrop spectrophotometer (Thermo Scientific). The following mouse primers were utilized: desmocollin 1 (Mm00496525_ml), desmoglein-1α (Mm00809994_s1), ephrinA3 (Mm01212723_g1) and pyruvate carboxylase (Mm00500992_ml) as housekeeping reference gene (all from Thermo Scientific). These human primers were used: desmoglein-1 (Hs00355084_m1) and glucose-6-phosphate isomerase (Hs00976711_m1) as a housekeeping reference gene. To define relative gene expression, 100 ng of RNA was mixed with TaqMan® RNA-to-Ct™ 1-Step Kit and adequate primer (final volume of 10 μL/well) using manufacturer's instructions (Life Technologies). qRT-PCR was performed using a Quantstudio3 Thermal Cycler, and data analyzed via Quanstudio Software (Applied Biosystems).

[2] = tested on: VK2/E6E7 vaginal cells; test: DSG1 gene expression in human vaginal epithelial cell line; format: cell-based; settings: 24 h, qRT-PCR
Experimental: VK2/E6E7 vaginal cells at 70-90% confluency were treated with indicated concentrations of EFNA3-derived peptide dimer for 24 h. Cells were harvested for RNA isolation and determination of relative DSG1 gene expression via qRT-PCR and ΔΔCt analysis.
VK2/E6E7 (ATCC® CRL-2616™) vaginal epithelial cell line was grown using ReproLife™ Reproductive Medium Complete Kit for up to 4 passages. For experiments, 10^5 cells were plated in 12-well plates. Cells reached 70-90% confluency after 24 hand were stimulated with EFNA3-like peptide dimer or vehicle. Cells were incubated for 24 h with indicated treatments. RNA was extracted and 500 ng of RNA used to generate cDNA using the SuperScript™ IV VILO™ Master Mix. Relative DSG1 (Hs00355084_m1) gene expression was calculated by normalization with the housekeeping gene glucose-6-phosphate isomerase (Hs00976711_m1) via qRT-PCR.

[3] = tested on: vaginal epithelium; test: Vaginal epithelial integrity and thickness in OVX mice, histology; format: in vivo; settings: ivag for 9 consecutive days, peptide dimer 10^−4 μM, Fc-EFNA3 1 μM
Experimental: Mice in estrus and OVX mice were used in these experiments. OVX mice received PBS alone, EFNA3-derived peptide dimer (10^−4 μM) or recombinant mouse Fc-EFNA3 (1 μM) via atraumatic intravaginal administration for 9 consecutive days. All mice were euthanized, and vaginal tissue processed for histological evaluation and measurement of vaginal epithelial thickness.
8-10 weeks female C57BL/6J mice were anesthetized. Dorsal skin was shaved and cleaned with 70% ethanol followed by povidone-iodine. Following appropriate sterile technique, a single dorsal skin incision was performed, followed by dissection until ovarian fat pads were identified and ovaries removed. Peritoneal and abdominal walls were sutured, and mice recovered from anesthesia. After confirmation of suppression of estrous cycle, mice were used in experiments.

[4] = tested on: HSV-2; test: Lethal genital HSV-2 infection; format: in vivo; settings: DMPA-treated mice; 10^4 pfu of HSV-2
Experimental: Mice were sedated with xylazine (Lloyd Laboratories, Shenandoah Iowa) and ketamine hydrochloride (JHP Pharmaceuticals, LLC Rochester Mich.), and intravaginally infected with 10^4 plaque-forming units (pfu) of WT HSV-2 333 in 10 μL of RPMI. Mouse mortality was evaluated daily for 15 days.

[5] = tested on: DSG1 protein; test: DSG1 protein levels in vaginal tissue, immunofluorescent staining and confocal microscopy; format: in vivo, mice
Experimental: Excised mouse vaginas were formaldehyde fixed and paraffin embedded (FFPE), and 10 μm sections mounted on glass slides and de-paraffinized by sequential immersion in 100% xylene, 100% ethanol, 96% ethanol, and sterile DEPC-treated water. Antigen retrieval was performed using 10 mM sodium citrate buffer (pH 6.0) containing 0.05% Tween 20 (both Sigma-Aldrich) (20 minutes at 95° C.). After 3 PBS washes, sections were incubated overnight in 10% normal goat serum (Abcam, Cambridge Mass.) at 4° C., then incubated for 1 h at ambient temperate with rabbit anti-desmoglein-1 (clone EPR6766(B)) antibody, washed and incubated for 1 h with AlexaFluor® 488-labeled goat anti-rabbit IgG (antibodies from Abcam) (all antibodies were diluted in PBS with 1% BSA and 0.05% Tween 20). Sections were stained with DAPI and evaluated for levels of DSG1 protein (defined by calculating pixel numbers per 100 μm^2) using confocal microscopy and ImageJ software.

[6] = tested on: genital mucosal barrier; test: Murine tissue permeability assay, low molecular weight fluorescent molecules given intravaginally; format: in vivo, mice
Experimental: Effects of progestins on genital mucosal barrier permeability were evaluated by intravaginally (ivag) administering 457 Da and 70 KDa-sized fluorescent molecules to mice in estrus or diestrus-stage or after DMPA or LNG treatment. Mice were grouped as follows: untreated in estrus, untreated in diestrus, DMPA treated, or LNG treated. The mice were intravaginally administered a PBS solution containing Lucifer yellow (457 Da) and Texas-Red-conjugated dextran (70 KDa). Animals were euthanized 45 minutes later to assess vaginal tissue penetration of these molecules by confocal microscopy. […] Mucosal permeability was increased moderately by diestrus, but dramatically by DMPA or LNG. Conversely, permeability increases were negligible in estrus-stage mice and mice treated with MePRDL or DMPA and RU486. This indicates exogenous progestins increase genital mucosal permeability.
To evaluate mucosal permeability to low molecular weight molecules, indicated groups of mice were sedated, and 10 μL of a PBS solution containing 62.5 μg of dextran Texas-Red® (DR) (MW=70,000 Da) and 50 μg of Lucifer yellow CH, lithium salt (LY) (MW=457.2 Da) (both from Life Technologies) administered intravaginally. 45 minutes later, mice were euthanized, and excised vaginal tissue fixed in formaldehyde. Fixed tissue was embedded in agarose, and 200-300 μm specimens were sectioned with a vibratome. After counterstaining with 4,6-diamidino-2-phenylindole (DAPI), confocal microscopy images were acquired by sequential scanning to prevent fluorescence crossover.

[7] = tested on: anti-OVA IgE; test: Mouse epicutaneous sensitization model of atopic dermatitis, serum anti-OVA IgE ELISA; format: in vivo, mice; settings: 3 cycles, OVA + Fc-EFNA3 vs OVA alone
Experimental: Mice underwent epicutaneous sensitization with OVA alone or in combination with recombinant mouse Fc-EFNA3. After 3 sensitization cycles, animals were euthanized to obtain blood for serum isolation. Then, levels of serum anti-OVA IgE was determined via ELISA.
6-10 weeks old Balb/cJ mice were anesthetized. Dorsal skin was shaved, and skin tape-stripped 6 times. PBS alone, 100 μg of ovalbumin (OVA) in PBS or 100 μg OVA+recombinant mouse Fc-EFNA3 in 100 μl of PBS were added to a 1×1 cm sterile gauze that was applied directly to tape-stripped area of skin and covered with a transparent bio-occlusive dressing. This patch was left in place for a 1-week period and removed. This procedure was repeated twice with 2-week intervals between applications. After completing the 3rd skin sensitization, mice were euthanized and serum samples obtained. Serum levels of anti-OVA IgE were was determined using an in-house ELISA.

[8] = tested on: desmocollin-1 (DSC1); test: qRT-PCR of Dsc1 gene expression in vaginal tissue; format: in vivo, mice; settings: DMPA-treated mice
Experimental: as §1, §2

Molecule: RYSAFSLGYEFH-Ahx-K-HFEYGLSFASYR (RYSAFSLGYEFH[Ahx]KHFEYGLSFASYR; also: Ahx-Lys linked dimer) [EFNA3-derived peptide dimer, Ahx is aminohexanoic acid]
- potency on Dsg1a expression compared to recombinant mouse Fc-EFNA3 ([1]; DMPA-treated mice, Fc-EFNA3 at 1 μM): greater potency
- Dsg1a mouse vaginal expression ([1]; DMPA-treated mice, topical/ivag in PBS, 24 hours): promotes Dsg1a mouse vaginal expression
- expression of cell-cell adhesion molecules in genital mucosal epithelium ([1]; topical administration): significantly increases
- DSG1 gene expression [2]: increase DSG1 expression; also recorded: promotes DSG1 expression
- vaginal epithelial integrity (epithelial thickness) [3]: improves vaginal epithelial integrity

B1: Fc-EFNA3: Recombinant Mouse Ephrin-A3 Fc Chimera Protein, SEQ ID NO: 13 (protein)
chain: QGPGGALGNRHAVYWNSSNQHLRREGYTVQVNVNDYLDIYCPHYNSSGPGGGAEQYVLYMVNLSGYRTCNASQGSKRWECNRQHASHSPIKFSEKFQRYSAFSLGYEFHAGQEYYYISTPTHNLHWKCLRMKVFVCCASTSHSGEKPVPTLPQFTMGPNVKINVLEDFEGENPQVPKLEKSISGIEGRMDPAKTTAPSVYPLAPVCGDTTGSSVTLGCLVKGYFPEPVTLTWNSGSLSSGVHTFPAVLQSDLYTLSSSVTVTSSTWPSQSITCNVAHPASSTKVDKKIEPRGPTIKPCPPCKCPAPNLLGGPSVFIFPPKIKDVLMISLSPIVTCVVVDVSEDDPDVQISWFVNNVEVHTAQTQTHREDYNSTLRVVSALPIQHQDWMSGKEFKCKVNNKDLPAPIERTISKPKGSVRAPQVYVLPPPEEEMTKKQVTLTCMVTDFMPEDIYVEWTNNGKTELNYKNTEPVLDSDGSYFMYSKLRVEKKNWVERNSYSCSVVHEGLHNHHTTKSFSRTPGK
- survival after genital HSV-2 infection [4]: improves the survival
- homogeneity of DSG1 protein expression ([5]; 1.5 ug in 30 uL of PBS vs 0.5 ug in 10 uL of PBS): more homogeneous expression
- dose that optimized levels of DSG1 protein ([5]; DMPA-treated mice, 24 hours after treatment): 0.5 µg
- DSG1 expression at higher doses ([5]; DMPA-treated mice, 24 hours, doses above 1 μg): reduced at higher doses
- DSG1 protein expression, dose dependence ([5]; DMPA-treated mice, 24 hours, up to the 1 μg dose): dose-dependent increase
- dose that optimized Dsg1a gene expression ([1]; DMPA-treated mice, ivag 0.25, 0.5, 1 and 2.5 μg in 10 μL, six hours after treatment): 0.5 µg
- expression of Dsg1a ([1]; DMPA-treated mice, ivag, select doses vs Fc-control, 6 h): increased expression
- genital mucosal barrier function / permeability to LMW fluorescent molecules ([6]; DMPA-treated mice, one ivag dose of 1.5 ug/30 uL): decreased genital mucosal permeability
- genital mucosal barrier function (summary of the studies) ([6]; via increased expression of epithelial cell-cell adhesion molecules, especially DSG1): enhanced genital mucosal barrier function
- serum allergen-specific (anti-OVA) IgE levels [7]: reduces allergen sensitization
- serum allergen-specific (anti-OVA) IgE levels ([7]; listed as recombinant mouse Fc-EFNA3): decreased allergen-specific IgE levels
- dose that optimized Dsc1 gene expression ([8]; ivag 0.25, 0.5, 1 and 2.5 μg in 10 μL, six hours after treatment): 0.5 µg
- expression of Dsc1 ([8]; ivag, select doses vs Fc-control, 6 h): increased expression
- vaginal epithelial integrity (epithelial thickness) [3]: improves vaginal epithelial integrity
